Tests used:
[1] = molecular target: T1, M1 micelle of fluorescein labelled PPA-1 (not fully specified)
T1 chain: GPLGLAGKWAAAAKAAAAK

[2] = molecular target: T2, Peptide 1
T2 chain: GPLGLAGKWAAAAKAAAAK

[3] = molecular target: T3, M4 micelle
T3 chain: GPLGLAGKWAAAAKAAAAK

B1: matrix-metalloproteinase 9 (protein)
chain: MRTPRCGVPDLGRFQTFEGDLKWHHHNITYWIQNYSEDLPRAVIDDAFARAFALWSAVTPLTFTRVYSRDADIVIQFGVAEHGDGYPFDGKDGLLAHAFPPGPGIQGDAHFDDDELWSLGKGVVVPTRFGNADGAACHFPFIFEGRSYSACTTDGRSDGLPWCSTTANYDTDDRFGFCPSERLYTQDGNADGKPCQFPFIFQGQSYSACTTDGRSDGYRWCATTANYDRDKLFGFCPTRADSTVMGGNSAGELCVFPFTFLGKEYSTCTSEGRGDGRLWCATTSNFDSDKKWGFCPDQGYSLFLVAAHEFGHALGLDHSSVPEALMYPMYRFTEGPPLHKDDVNGIRHLYGPRPEPEPRPPTTTTPQPTAPPTVCPTGPPTVHPSERPTAGPTGPPSAGPTGPPTAGPSTATTVPLSPVDDACNVNIFDAIAEIGNQLYLFKDGKYWRFSEGRGSRPQGPFLIADKWPALPRKLDSVFEERLSKKLFFFSGRQVWVYTGASVLGPRRLDKLGLGADVAQVTGALRSGRGKMLLFSGRRLWRFDVKAQMVDPRSASEVDRMFPGVPLDTHDVFQYREKAYFCQDRFYWRVSSRSELNQVDQVGYVTYDILQCPED
MMP-9 cleavage efficiency (RP-HPLC after 24 hrs) [1]: estimated to be 41% | MMP-9 cleavage efficiency (RP-HPLC after 24 hrs) [2]: quantitative | Michaelis-Menten kinetics (Kcat and KM) from fluorescein signal increase upon cleavage of the Dabcyl label [3]: this substrate for MMP-9 is comparable to standard substrate
